Read-outs that look alike come from different tables or passages of the source. Numbered stars: 1 amine (or outer) side, 2 acyl side, 3 side chain; on linkers, the order of the positions; unused ones are H or OH. Side chains are listed from the residue outwards. Ends that are not written are not given here. Peptide text beside a SMILES is read from it. * marks the point of attachment. γGlu = O=C(O)[C@H](CCC(=O)[*:2])N[*:1]; Palmitoyl = CCCCCCCCCCCCCCCC(=O)*
T1: human glucose-dependent insulinotropic peptide (gastric inhibitory polypeptide) receptor (human, UniProt P48546 22-466)
T1 sequence (looked up): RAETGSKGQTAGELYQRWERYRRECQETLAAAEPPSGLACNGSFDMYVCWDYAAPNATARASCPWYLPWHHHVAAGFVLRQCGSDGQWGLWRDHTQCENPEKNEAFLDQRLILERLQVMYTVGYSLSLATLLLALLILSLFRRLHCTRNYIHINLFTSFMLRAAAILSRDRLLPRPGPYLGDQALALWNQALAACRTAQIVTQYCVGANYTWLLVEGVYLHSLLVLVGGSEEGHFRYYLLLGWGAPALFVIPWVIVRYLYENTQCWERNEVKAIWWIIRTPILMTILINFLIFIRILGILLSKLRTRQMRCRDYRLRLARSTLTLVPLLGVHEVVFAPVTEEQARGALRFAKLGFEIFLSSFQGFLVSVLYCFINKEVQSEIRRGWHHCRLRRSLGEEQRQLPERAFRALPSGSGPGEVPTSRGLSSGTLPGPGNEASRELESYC

T2: mouse GLP-1 receptor (mouse, UniProt O35659 22-463)
T2 sequence (looked up): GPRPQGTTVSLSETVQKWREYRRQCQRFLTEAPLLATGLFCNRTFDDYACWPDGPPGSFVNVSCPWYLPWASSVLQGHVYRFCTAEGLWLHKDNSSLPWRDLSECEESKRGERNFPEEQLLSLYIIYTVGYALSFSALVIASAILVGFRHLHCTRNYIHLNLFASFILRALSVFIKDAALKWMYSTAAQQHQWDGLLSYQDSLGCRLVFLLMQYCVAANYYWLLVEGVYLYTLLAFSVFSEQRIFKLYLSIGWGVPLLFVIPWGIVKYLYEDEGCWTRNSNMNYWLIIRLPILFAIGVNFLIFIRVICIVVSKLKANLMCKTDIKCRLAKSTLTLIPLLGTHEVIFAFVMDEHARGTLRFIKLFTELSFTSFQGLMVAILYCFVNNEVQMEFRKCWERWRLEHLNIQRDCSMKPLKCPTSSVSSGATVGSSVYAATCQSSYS


What was measured:
Human GlucR = Human GlucR (Homo sapiens, UniProt P47871); conditions: read-out: hGlucR EC50; assay 1; additional peptides (Table 4)
Description: All sample dilutions were made in duplicate.
A frozen cryo-vial of cells expressing the receptor of interest was thawed rapidly in a water-bath, transferred to pre-warmed assay media and spun at 240×g for 5 minutes. Cells were re-suspended in assay media at an optimised concentration (e.g. hGCGR cells at 1×10^5 cells/ml, hGLP-1R and hGIPR cells at 0.5×10^5 cells/ml).
To this, 5 μL cell suspension was added and the plates incubated at room temperature for 30 minutes.
cAMP levels were measured using a commercially available cAMP dynamic 2 HTRF kit (Cisbio, Cat #62AM4PEJ), following the two step protocol as per manufacturer's recommendations. In brief; anti-cAMP cryptate (donor fluorophore) and cAMP-d2 (acceptor fluorophore) were made up separately by diluting each 1/20 in conjugate & lysis buffer provided in the kit. 5 μL anti-cAMP cryptate was added to all wells of the assay plate, and 5 μL cAMP-d2 added to all wells except non-specific binding (NSB) wells, to which conjugate and lysis buffer was added.

[1] = frozen blank plasma from rat; conditions: 37° C, up to 48 hours
human glucagon receptor [2] = target: T3, human glucagon receptor (human, UniProt P47871 26-477); assay: cell-based or functional assay
human GLP-1 receptor [3] = target: T4, human GLP-1 receptor (human, UniProt P43220 24-463); assay: cell-based or functional assay
[4] = target: T1, human glucose-dependent insulinotropic …; assay: cell-based or functional assay
[5] = target: T1, human glucose-dependent insulinotropic …; assay: cell-based or functional assay; remark: listed apart in the source
mouse GLP-1 receptor = target: T2, mouse GLP-1 receptor; assay: cell-based or functional assay
human GLP-1 receptor [6] = target: T4, human GLP-1 receptor; assay: cell-based or functional assay; remark: listed apart in the source
human serum albumin = human serum albumin (Homo sapiens, UniProt P02768); assay: calculated from the variation in cAMP generation with the HSA concentration (assay 2)
human glucagon receptor [7] = target: T3, human glucagon receptor; assay: cell-based or functional assay; remark: listed apart in the source
human GLP-1 receptor [8] = target: T4, human GLP-1 receptor; assay: cell-based or functional assay; remark: listed apart in the source
human glucagon receptor [9] = target: T3, human glucagon receptor; assay: cell-based or functional assay; remark: listed apart in the source
mouse glucagon receptor = mouse glucagon receptor (mouse, UniProt Q61606 27-485); assay: cell-based or functional assay
human GLP-1 receptor [10] = target: T4, human GLP-1 receptor; assay: cell-based or functional assay; remark: listed apart in the source
human glucagon receptor [11] = target: T3, human glucagon receptor; assay: cell-based or functional assay; remark: listed apart in the source
[12] = target: T1, human glucose-dependent insulinotropic …; assay: cell-based or functional assay; remark: listed apart in the source

T3 sequence (P47871 26-477): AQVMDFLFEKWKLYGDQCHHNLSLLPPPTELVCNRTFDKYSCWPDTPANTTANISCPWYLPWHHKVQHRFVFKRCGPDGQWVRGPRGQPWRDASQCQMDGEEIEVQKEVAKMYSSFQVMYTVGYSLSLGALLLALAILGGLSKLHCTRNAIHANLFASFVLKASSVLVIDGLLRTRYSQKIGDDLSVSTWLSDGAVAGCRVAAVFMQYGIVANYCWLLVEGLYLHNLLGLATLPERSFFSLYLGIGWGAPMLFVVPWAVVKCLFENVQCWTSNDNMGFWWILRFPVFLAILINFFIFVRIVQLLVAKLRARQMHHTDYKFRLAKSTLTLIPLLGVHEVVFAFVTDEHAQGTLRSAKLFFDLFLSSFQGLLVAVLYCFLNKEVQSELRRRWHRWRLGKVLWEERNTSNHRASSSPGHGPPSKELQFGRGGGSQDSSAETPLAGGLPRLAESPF
Sequence of Human GlucR (P47871 26-477): as above
Sequence of mouse glucagon receptor (Q61606 27-485): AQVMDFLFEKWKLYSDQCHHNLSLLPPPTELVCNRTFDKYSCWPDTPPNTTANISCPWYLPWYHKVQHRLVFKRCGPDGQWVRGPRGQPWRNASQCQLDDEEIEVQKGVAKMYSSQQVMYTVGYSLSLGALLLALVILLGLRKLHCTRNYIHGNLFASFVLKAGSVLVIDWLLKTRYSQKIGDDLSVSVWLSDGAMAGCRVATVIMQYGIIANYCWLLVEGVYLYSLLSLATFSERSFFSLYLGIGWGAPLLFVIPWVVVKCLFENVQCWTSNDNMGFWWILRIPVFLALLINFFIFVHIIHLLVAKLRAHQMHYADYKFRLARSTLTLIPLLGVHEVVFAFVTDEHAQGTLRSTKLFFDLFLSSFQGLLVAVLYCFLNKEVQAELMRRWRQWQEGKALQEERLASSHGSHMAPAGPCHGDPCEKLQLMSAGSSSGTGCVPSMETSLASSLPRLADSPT
Sequence of human serum albumin (P02768 25-609 limits assumed): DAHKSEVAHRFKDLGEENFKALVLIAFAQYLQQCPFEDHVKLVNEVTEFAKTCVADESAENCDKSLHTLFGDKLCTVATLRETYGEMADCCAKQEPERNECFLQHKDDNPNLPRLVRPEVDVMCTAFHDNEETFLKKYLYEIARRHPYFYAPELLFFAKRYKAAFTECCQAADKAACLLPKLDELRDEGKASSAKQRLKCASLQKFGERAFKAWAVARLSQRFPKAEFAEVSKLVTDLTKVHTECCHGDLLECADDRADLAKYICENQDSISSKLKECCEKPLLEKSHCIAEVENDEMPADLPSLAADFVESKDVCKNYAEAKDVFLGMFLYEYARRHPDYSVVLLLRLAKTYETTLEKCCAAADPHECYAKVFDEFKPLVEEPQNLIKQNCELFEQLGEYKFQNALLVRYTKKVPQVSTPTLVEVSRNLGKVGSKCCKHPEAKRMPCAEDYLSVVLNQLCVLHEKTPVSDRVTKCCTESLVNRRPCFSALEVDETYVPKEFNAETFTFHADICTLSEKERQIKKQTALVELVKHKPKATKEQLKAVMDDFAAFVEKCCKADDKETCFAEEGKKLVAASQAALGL

Row | Molecule | cAMP EC50 (assay 1) (human glucagon receptor [2]) [nM] | cAMP EC50 (assay 1) (human GLP-1 receptor [3]) [nM] | cAMP EC50 (assay 1) [5] [nM] | cAMP EC50 (assay 2, 3.2% mouse serum albumin) (mouse GLP-1 receptor) [nM] | cAMP EC50 (assay 1) (human GLP-1 receptor [6]) [nM] | further results
1 | CC(C)C[C@H](NC(=O)[C@H](Cc1ccc(O)cc1)NC(=O)[C@H](CCCCN)NC(=O)[C@H](CO)NC(=O)[C@H](Cc1ccc(O)cc1)NC(=O)[C@H](CC(=O)O)NC(=O)[C@H](CO)NC(=O)[C@@H](NC(=O)[C@H](Cc1ccccc1)NC(=O)[C@@H](NC(=O)CNC(=O)[C@H](CCC(N)=O)NC(=O)[C@H](CO)NC(=O)[C@@H](N)Cc1c[nH]cn1)[C@@H](C)O)[C@@H](C)O)C(=O)N[C@@H](CC(=O)O)C(=O)N[C@@H](CO)C(=O)N[C@@H](CCCNC(=N)N)C(=O)N[C@@H](CCCNC(=N)N)C(=O)N[C@@H](C)C(=O)N[C@@H](CCC(N)=O)C(=O)N[C@@H](CC(=O)O)C(=O)N[C@@H](Cc1ccccc1)C(=O)N[C@H](C(=O)N[C@@H](CCC(N)=O)C(=O)N[C@@H](Cc1c[nH]c2ccccc12)C(=O)N[C@@H](CC(C)C)C(=O)N[C@H](C(=O)N[C@@H](C)C(=O)NCC(=O)NCC(=O)N1CCC[C@H]1C(=O)N[C@@H](CO)C(=O)N[C@@H](CO)C(=O)NCC(=O)N[C@@H](C)C(=O)N1CCC[C@H]1C(=O)N1CCC[C@H]1C(=O)N1CCC[C@H]1C(=O)N[C@@H](CO)C(=O)N[C@@H](CCCCN)C(N)=O)C(C)C)C(C)C [g319] (H-HSQGTFTSDYSKYLDSRRAQDFVQWLVAGGPSSGAPPPSK-NH2; N-terminus assumed) |  |  |  |  |  | EC50 (Human GlucR): 0.0104 nM
2 | CCCCCCCCCCCCCCCC(=O)N[C@@H](CCC(=O)NCCCC[C@H](NC(=O)[C@H](CO)NC(=O)[C@H](CC(=O)O)NC(=O)[C@H](CC(C)C)NC(=O)[C@H](Cc1ccc(O)cc1)NC(=O)[C@H](CCCCN)NC(=O)[C@H](CO)NC(=O)[C@H](Cc1ccc(O)cc1)NC(=O)[C@H](CC(=O)O)NC(=O)[C@H](CO)NC(=O)[C@@H](NC(=O)[C@H](Cc1ccccc1)NC(=O)[C@@H](NC(=O)CNC(=O)[C@H](CCC(N)=O)NC(=O)CNC(=O)[C@@H](N)Cc1c[nH]cn1)[C@@H](C)O)[C@@H](C)O)C(=O)N[C@@H](CCCNC(=N)N)C(=O)N[C@@H](C)C(=O)N[C@@H](C)C(=O)N[C@@H](CC(=O)O)C(=O)N[C@@H](Cc1ccccc1)C(=O)N[C@H](C(=O)N[C@@H](C)C(=O)N[C@@H](Cc1c[nH]c2ccccc12)C(=O)N[C@@H](CC(C)C)C(=O)N[C@H](C(=O)N[C@@H](C)C(=O)NCC(=O)NCC(N)=O)C(C)C)C(C)C)C(=O)O [g736] (H-HGQGTFTSDYSKYLDSK([γGlu-Palmitoyl])RAADFVAWLVAGG-NH2; N-terminus assumed) |  |  |  |  |  | EC50 (Human GlucR): 0.92 nM
3 | HSQGTFTSDXSRYLDSRSARDFVAWLEAGG-amide X10 = K(gE-palm) |  |  |  |  |  | fragment found [1]: DPP IV-cleavage product
4 | HSQGTFTSDK([γGlu-Palmitoyl])SKYLEGQAAKEFIAWLEKGR-OH [G934] | 0.0063 | 0.018 |  |  |  | cAMP EC50 (assay 1) [4]: 3.6 nM
5 | HSQGTFTSDKSSYLDSRRARDFVAWLEAGG (X10 = K(gE-palm); C-terminal amide) [G796] |  |  | 14 | 0.13 | 0.014 | 
6 | HSQGTFTSDXSSYLDSRSARDFVAWLEAGG (X10 = K(gE-palm); C-terminal acid) [G973] | 0.0089 | 0.012 |  |  |  | cAMP EC50 (assay 1) [4]: 47 nM
7 | HSQGTFTSDKSRYLDSRSARDFVAWLEAGG (X10 = K(gE-palm); C-terminal amide) [G849] |  |  | 17 |  | 0.00907 | free peptide at 4.4% HSA (human serum albumin): 0.48%
8 | HSQGTFTSDYSKK([γGlu-Palmitoyl])LDSERARDFVAWLVAGG-OH [G931] | 0.0178 | 0.13 |  |  |  | 
9 | HGQGTFTSDYSKYLDSKRAQDFVQWLVAGG (X17 = K(gE-palm); C-terminal amide) [G380] |  |  | 130 | 15 | 0.1 | cAMP EC50 (assay 1) (human glucagon receptor [7]): 0.217 nM; cAMP EC50 (assay 1) (human GLP-1 receptor [8]): 0.077 nM; cAMP EC50 (assay 2, 4.4% human serum albumin) (human glucagon receptor [9]): 53.6 nM; cAMP EC50 (assay 2, 3.2% mouse serum albumin) (mouse glucagon receptor): 576 nM; cAMP EC50 (assay 2, 4.4% human serum albumin) (human GLP-1 receptor [10]): 6.54 nM; cAMP EC50 (assay 1) (human glucagon receptor [11]): 0.362 nM; cAMP EC50 (assay 1) [12]: 609 nM
10 | HSQGTFTSDKSKYLEGQAAKEFIAWLEKGR (X10 = K(gE-palm); C-terminal amide) [G812] |  |  |  | 0.13 |  | 

— patent publication US20220098265A1 (MEDIMMUNE LIMITED, priority 2012, published 2022)
